Data: patent publication US20040063632A1 (Bayer, published 2004)

T1: Human FVIIa (human, UniProt P08709 61-466)
T1 construct: Bought protein; also called factor VIIa
T1 sequence (looked up): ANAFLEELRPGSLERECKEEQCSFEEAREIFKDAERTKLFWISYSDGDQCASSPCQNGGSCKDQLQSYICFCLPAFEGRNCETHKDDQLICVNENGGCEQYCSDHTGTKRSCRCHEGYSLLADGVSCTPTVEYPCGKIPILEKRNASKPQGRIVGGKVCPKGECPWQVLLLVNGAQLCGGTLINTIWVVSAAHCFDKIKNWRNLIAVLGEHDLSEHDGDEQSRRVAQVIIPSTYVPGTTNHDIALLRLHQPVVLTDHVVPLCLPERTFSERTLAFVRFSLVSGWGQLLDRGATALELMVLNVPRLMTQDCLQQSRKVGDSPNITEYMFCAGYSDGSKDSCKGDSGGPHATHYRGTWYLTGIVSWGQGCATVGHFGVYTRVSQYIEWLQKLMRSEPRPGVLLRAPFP

B1: recombinant human soluble tissue factor (receptor, UniProt P13726 33-251, looked up)
chain: SGTTNTVAAYNLTWKSTNFKTILEWEPKPVNQVYTVQISTKSGDWKSKCFYTTDTECDLTDEIVKDVKQTYLARVFSYPAGNVESTGSAGEPLYENSPEFTPYLETNLGQPTIQSFEQVGTKVNVTVEDERTLVRRNNTFLSLRDVFGKDLIYTLYYWKSSSSGKKTAKTNTNEFLIDVDKGENYCFSVQAVIPSRTVNRKSTDSPVECMGQEKGEFRE
notes: extracellular domain; also called sTF; soluble TF
B2: scFv(TF)3e10-TMi456 fusion protein (other)
chain: EMAQVNLRESGGTLVQPGGSLRLSCAASGFSFTDAWMSWVRQAPGKELEWVSSISGSGGSTYYAGSVKGRFTISRDNSKNTLYLQMNSLRAEDTAVYYCARVLSLTDYYWYGMDVWGQGTLVTVSAGGGGSGAPNFMLTQPHSVSASPGKTVTISCTRSSGSVASYYVQWYQQRPGSSPTTVIYEDNHRPSGVPDRFSGSIDTSSNSASLTISGLKTEDEADYYCQSYDSNNLVVFGGGTKLTVLGAAAGGGGSGGGGSGGGGSVEPVDPCFRANCEYQCQPLNQTSYLCVCAEGFAPIPHEPHRCQMFCNQTACPADCDPNTQASCECPEGYILDDGFICTDIDECENGGFCSGVCHNLPGTFECICGPDSALAGQIGTDCAAAGAPVPYPDPLEPRAA
B3: scFV(TF)3e10 (dimer) (scFv)
scFv: EMAQVNLRESGGTLVQPGGSLRLSCAASGFSFTDAWMSWVRQAPGKELEWVSSISGSGGSTYYAGSVKGRFTISRDNSKNTLYLQMNSLRAEDTAVYYCARVLSLTDYYWYGMDVWGQGTLVTVSAGGGGSGAPNFMLTQPHSVSASPGKTVTISCTRSSGSVASYYVQWYQQRPGSSPTTVIYEDNHRPSGVPDRFSGSIDTSSNSASLTISGLKTEDEADYYCQSYDSNNLVVFGGGTKLTVLGAAAGAPVPYPDPLEPRAA
B4: single chain anti-TF antibody scFv(TF)3e10 (scFv)
scFv: B3 scFv
notes: Human scFv from phage library HuPhaBL3

What was measured:
[1] = target: T1, Human FVIIa; assay: sTF/FVIIa activation assay: sTF titrated against 2 nM FVIIa without antibody, rate of cleavage of chromogenic substrate S-2266, apparent KD from a 4-parameter fit
[2] = target: full length TF in phospholipid vesicles (human, UniProt P13726 33-295); assay: cell-based or functional assay
[3] = target: B1; assay: isothermal titration calorimetry (MicroCal VP-ITC), 141 µM scFv(TF)3e10 in the syringe, 10 µM sTF in the cell, OneSites model
Protocol: (§1) FIG. 3. […] Isothermal titration calorimetry was performed using a MicroCal VP-ITC instrument. […] Data analysis was done using MicroCal Origin software. The data was fit to a single binding site.

[4] = target: B1; assay: apparent KD from the sTF/FVIIa chromogenic activation assay (3 nM sTF, 2 nM FVIIa, antibody titrated, 4-parameter fit); sTF/FVIIa chromogenic assay, apparent KD
[5] = target: T2, sTF/FVIIa complex (preformed from sTF and a 2.3 fold molar excess of FVIIai) (human, UniProt P13726 33-251; P08709 61-466, limits assumed, active site inhibited (FVIIai); the way of inhibition is not stated for this batch); assay: isothermal titration calorimetry
T2 construct: Complex used in the microcalorimeter cell; complete complexing of sTF verified by size exclusion chromatography; also called sTF/VIIa complex; FVIIa/TF complex
Protocol: as §1

[6] = target: B1; assay: isothermal titration calorimetry (MicroCal VP-ITC), 10 uM sTF in the cell, 141 uM scFv in the syringe; microcalorimetry, free sTF as target
Protocol: as §1

[7] = target: T2, sTF/FVIIa complex (preformed from sTF …); assay: isothermal titration calorimetry (MicroCal VP-ITC), 1.2 uM complex in the cell, 65 uM scFv in the syringe; microcalorimetry, TF/FVIIa complex as target
Protocol: as §1

[8] = target: T2, sTF/FVIIa complex (preformed from sTF …); assay: isothermal titration calorimetry (MicroCal VP-ITC), 65 µM scFv(TF)3e10 in the syringe, 1.2 µM preformed sTF/FVIIai complex in the cell, OneSites model
Protocol: as §1

Question: How did the Kd [1] turn out when B1 was run?
Answer: 13 nM

Question: Which results are given for B2?
Answer: IC50 of FX activation by the FVIIa/TF complex [2]: 0.5 nM; TM cofactor activity (protein C activation assay on TF-rich surface) [2]: > 5 fold

Question: Which “IC50 for inhibition in the FX activation assay” value [2] does the source give for B3 here?
Answer: 0.44 nM

Question: How did the N [3] turn out when B4 was run?
Answer: 0.878

Question: And the ΔH [3]?
Answer: -21.9 kcal/mol

Question: And the ΔS [3]?
Answer: -43.6

Question: What about the Kd [4] of the same binder?
Answer: 65.4 nM

Question: And the “fold higher affinity than for free sTF” value [5]?
Answer: 20 fold

Question: And the Kd [6]?
Answer: 600 nM

Question: And the Kd [7]?
Answer: 33 nM

Question: And the N [8]?
Answer: 1.14

Question: What about the ΔH [8] of the same binder?
Answer: -28.6 kcal/mol

Question: What about the ΔS [8] of the same binder?
Answer: -60
